# Source: patent publication US20140378382A1 (WISCONSIN ALUMNI RESEARCH FOUNDATION, published 2014)
# Non-standard residues stand in square brackets, D forms with d. Primed or numbered codes have the meaning given here. No end group written: not given here. APC = aminopyrrolidine carboxylic acid (2-aminopyrrolidine-4-carboxylic acid); ACPC(3) = 2-aminocyclopentane carboxylic acid (cyclic beta residue); ACPC″ = 2-aminocyclopentane carboxylic acid (X); ACPC = 2-aminocyclopentane carboxylic acid; β3hW = N[C@H](CC(=O)O)Cc1c[nH]c2ccccc12; hArg = N=C(N)NCCCC[C@H](N)C(=O)O; β3hE = N[C@@H](CCC(=O)O)CC(=O)O; β3hF = N[C@H](CC(=O)O)Cc1ccccc1; β3hL = CC(C)C[C@H](N)CC(=O)O; β3hK = NCCCC[C@H](N)CC(=O)O; β3hM = CSCC[C@H](N)CC(=O)O; β3hD = NC(CC(=O)O)CC(=O)O; β3hS = N[C@@H](CO)CC(=O)O; Aib = CC(C)(N)C(=O)O
# T1: rat parathyroid hormone receptor 1, wild-type (rPTHR-1) (rat, UniProt P25961 27-591)
# T1 sequence (looked up): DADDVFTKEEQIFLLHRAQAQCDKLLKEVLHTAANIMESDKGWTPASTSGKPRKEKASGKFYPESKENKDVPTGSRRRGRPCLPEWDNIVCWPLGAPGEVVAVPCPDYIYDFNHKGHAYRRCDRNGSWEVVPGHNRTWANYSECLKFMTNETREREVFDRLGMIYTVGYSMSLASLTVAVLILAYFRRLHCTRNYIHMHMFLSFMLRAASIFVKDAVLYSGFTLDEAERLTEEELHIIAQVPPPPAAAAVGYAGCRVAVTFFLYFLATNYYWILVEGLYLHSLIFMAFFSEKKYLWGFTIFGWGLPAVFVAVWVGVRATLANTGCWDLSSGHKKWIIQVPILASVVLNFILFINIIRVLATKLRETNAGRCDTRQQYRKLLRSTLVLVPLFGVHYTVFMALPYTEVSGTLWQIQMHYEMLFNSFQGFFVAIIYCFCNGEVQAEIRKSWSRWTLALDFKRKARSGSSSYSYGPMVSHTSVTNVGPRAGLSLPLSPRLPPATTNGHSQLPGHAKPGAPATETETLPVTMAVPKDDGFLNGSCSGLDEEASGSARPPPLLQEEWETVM
# T2: PTHR-1 (species and cells not stated for the assay) (Homo sapiens (Human), UniProt Q03431 27-593)
# T2 sequence: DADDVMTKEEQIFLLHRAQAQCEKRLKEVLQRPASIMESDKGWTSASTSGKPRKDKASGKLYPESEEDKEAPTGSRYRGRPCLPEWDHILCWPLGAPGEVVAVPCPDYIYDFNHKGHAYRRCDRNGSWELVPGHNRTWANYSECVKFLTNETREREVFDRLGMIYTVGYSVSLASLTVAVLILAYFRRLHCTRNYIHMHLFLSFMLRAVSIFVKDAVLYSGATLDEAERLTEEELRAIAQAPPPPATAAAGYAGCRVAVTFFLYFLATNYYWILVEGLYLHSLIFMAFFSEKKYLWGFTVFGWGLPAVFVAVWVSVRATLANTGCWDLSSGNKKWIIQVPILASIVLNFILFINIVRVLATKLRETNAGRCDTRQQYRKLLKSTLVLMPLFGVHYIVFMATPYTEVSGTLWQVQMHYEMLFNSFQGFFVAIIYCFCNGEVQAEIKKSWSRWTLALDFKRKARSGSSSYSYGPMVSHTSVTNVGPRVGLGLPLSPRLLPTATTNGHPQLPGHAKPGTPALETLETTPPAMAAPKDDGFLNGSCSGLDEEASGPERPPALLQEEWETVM
# T3: delNT PTHR1 (human, UniProt Q03431 27-593)
# T3 sequence (looked up): T2 sequence
# B1: CycD6_ACPC(1,5,7) (peptide)
# peptide: [ACPC]VSE[ACPC]Q[ACPC]MHNLGK[ACPC]LNS[ACPC]ERVEWLR[APC]KLQDVHN[ACPC]-NH2
# modifications: not fully specified; printed as XVSEXQXMHNLGKXLNSXERVEWLRZKLQDVHNX-NH2; also: further β3 residues, positions not shown (marking lost)
# B2: D6_ACPC(1,7) (peptide)
# peptide: [ACPC]VSEIQ[ACPC]MHNLGKWLNSMERVEWLRKKLQDVHNF-NH2
# modifications: not fully specified; printed as XVSEIQXMHNLGKWLNSMERVEWLRKKLQDVHNF-NH2; also: D6 β3 residues, positions not shown (marking lost)
# B3: D6_ACPC(1,5,7) (peptide)
# peptide: [ACPC]VSE[ACPC]Q[ACPC]MHNLGKWLNSMERVEWLRKKLQDVHNF-NH2
# modifications: not fully specified; printed as XVSEXQXMHNLGKWLNSMERVEWLRKKLQDVHNF-NH2; also: D6 β3 residues, positions not shown (marking lost)
# B4: CycD6_ACPC(1,7) (peptide)
# peptide: [ACPC]VSEIQ[ACPC]MHNLGK[ACPC]LNS[ACPC]ERVEWLR[APC]KLQDVHN[ACPC]-NH2
# modifications: not fully specified; printed as XVSEIQXMHNLGKXLNSXERVEWLRZKLQDVHNX-NH2; also: further β3 residues, positions not shown (marking lost)
# Molecular target: T1, rat parathyroid hormone receptor 1, …
# Assay: cell-based or functional assay
row,cAMP Max,Binder
1,68 cps × 10-3,"SVSEIQLMHNLGKHLNSMERVEWLRKKLQDVHNF-NH2 (also: three β3 residues, αααβ pattern, positions not given here) [C3]"
2,48 cps × 10-3,"SVSEIQLMHNLGKHLNSMERVEWLRKKLQDVHNF-NH2 (also: five β3 residues, αααβ pattern, positions not given here) [C5]"
3,43 cps × 10-3,"SVSEIQLMHNLGKHLNSMERVEWLRKKLQDVHNF-NH2 (also: five β3 residues, αααβ pattern, positions not given here) [D5]"
4,65 cps × 10-3,"SVSEIQLMHNLGKHLNSMERVEWLRKKLQDVHNF-NH2 (also: three β3 residues, αααβ pattern, positions not given here) [D3]"
5,54 cps × 10-3,SVSEIQLMHNLGKHLNSMERVEWLRKKLQDVHNF-NH2 (not fully specified (residue 19)) [A5]

# Molecular target: T2, PTHR-1 (species and cells not stated …)
# Assay: cell-based or functional assay
Fold PTH,cAMP EC50,Binder
8.7 fold,0.71 nM,"[ACPC″]VSEIQ[ACPC″]MHNLGK[ACPC″]LNS[ACPC″]ERV[APC]WLR[APC]KLQ[ACPC″]VHN[ACPC″]-NH2 [FcycD6_ACPC(1,7)]"
3.2 fold,0.26 nM,SVSEIQLMHNLGK[ACPC]LNS[ACPC]ERV[APC]WLR[APC]KLQ[ACPC]VHN[ACPC]-NH2 (not fully specified; printed as SVSEIQLMHNLGKXLNSXERVZWLRZKLQXVHNX-NH2) [FcycD6]
266 fold,21.7 nM,B1
1.7 fold,0.14 nM,"[ACPC]VSEIQ[ACPC]MHNLGKHLNSMERVEWLRKKLQDVHNF-NH2 [ACPC(1,7)]"
22.6 fold,1.84 nM,B2
1.3 fold,0.1 nM,"SVSEIQLMHNLGK[ACPC″]LNS[ACPC″]ERV[β3hE]WLR[APC]KLQ[β3hD]VHN[ACPC″]-NH2 (also: β3 residues (bold, underlined) not marked in the text) [cycD6]"
2040 fold,167 nM,B3
7.3 fold,0.59 nM,B4

# Molecular target: T3, delNT PTHR1
# Assay: cell-based or functional assay
Fold PTH,cAMP EC50,Binder
87 fold,5.4 µM,SVSEIQLMZNLGKHLNSMERVEWLRKKLQDVHNF (APC (Z) at 9; C-terminal amide) [APC(9) PTH(1-34)]
,20 µM,SVSEIQL[β3hM]HNLGKHLNSMERVEWLRKKLQDVHNF-NH2 [β3Met(8) PTH(1-34)]
,15 µM,SVS[β3hE]IQLMHNLGKHLNSMERVEWLRKKLQDVHNF-NH2 [β3Glu(4) PTH(1-34)]
510 fold,32 µM,SVS[ACPC]IQLMHNLGKHLNSMERVEWLRKKLQDVHNF-NH2 [ACPC(4) PTH(1-34)]
,340 µM,SV[β3hS]EIQLMHNLGKHLNSMERVEWLRKKLQDVHNF-NH2 [β3Ser(3) PTH(1-34)]
,67 µM,SVSEIQ[β3hL]MHNLGKHLNSMERVEWLRKKLQDVHNF-NH2 [β3Leu(7) PTH(1-34)]

# Molecular target: T2, PTHR-1 (species and cells not stated …)
# Assay: cell-based or functional assay
# Remark: another data set of the same source
Fold PTH,cAMP EC50,Binder
9.5 fold,0.78 nM,"[ACPC″]V[Aib]E[ACPC″]Q[ACPC″]MHQ[hArg]AK[ACPC″]LNS[ACPC″]RRV[APC]WLR[APC]KLQ[ACPC″]VHN[ACPC″]-NH2 [M-X1,5,7-FcycD6]"
6.3 fold,0.52 nM,"[ACPC″]V[Aib]EIQ[ACPC″]MHQ[hArg]AKWLNSMRRVEWLRKKLQDVHNF-NH2 [M-ACPC(1,7)]"
21.8 fold,1.77 nM,"[ACPC″]V[Aib]EIQ[ACPC″]MHQ[hArg]AK[ACPC″]LNS[ACPC″]RRV[APC]WLR[APC]KLQ[ACPC″]VHN[ACPC″]-NH2 [M-FcycD6_ACPC(1,7)]"
9.7 fold,0.79 nM,"[ACPC″]V[Aib]E[ACPC″]Q[ACPC″]MHQ[hArg]AK[β3hW]LNS[β3hM]RRV[β3hE]WLR[β3hK]KLQ[β3hD]VHN[β3hF]-NH2 (also: β3 residues (bold, underlined) not marked in the text) [M-X1,5,7-D6]"
3.8 fold,0.31 nM,"H[ACPC(3)]V[Aib]E[ACPC(3)]Q[ACPC(3)]MHQ[hArg]AK[ACPC(3)]LNS[ACPC(3)]RRV[β3hE]WLR[APC]KLQ[β3hD]VHN[ACPC(3)]-NH2 (not fully specified) [M-X1,5,7-CycD6]"
5.4 fold,0.44 nM,"AVAEIQ[ACPC″]MHQ[hArg]AKWLNSMRRVEWLRKKLQDVHNF-NH2 (not fully specified (residues 14, 18, 22, 26, 30, 34)) [M-D6]"
10.2 fold,0.83 nM,"[ACPC″]V[Aib]EIQ[ACPC″]MHQ[hArg]AK[β3hW]LNS[β3hM]RRV[β3hE]WLR[β3hK]KLQ[β3hD]VHN[β3hF]-NH2 (also: β3 residues (bold, underlined) not marked in the text) [M-D6_ACPC(1,7)]"
4.9 fold,0.4 nM,"[ACPC″]V[Aib]E[ACPC″]Q[ACPC″]MHQ[hArg]AKWLNSMRRVEWLRKKLQDVHNF-NH2 [M-ACPC(1,5,7)]"
6.3 fold,0.51 nM,AVAEIQ[ACPC″]MHQ[hArg]AK[ACPC″]LNS[ACPC″]RRV[APC]WLR[APC]KLQ[ACPC″]VHN[ACPC″]-NH2 [M-FcycD6]
